The text below walks through data of patent publication US10584153B2, “Treatment of damaged nerve with PTEN inhibitor” (TISSUEGENE, INC., priority 2013, dated 2020).

pIC50: −log10 of the molar value. Where “and” joins values, the source holds several entries; their conditions need not be identical. Equal entries are not always repeated. No end group written: not given here.

Assay [1] addresses T1, PTEN (Homo sapiens, UniProt P60484). To be noted: from Odriozola et al.; read-out: IC50, in vitro PTEN (Odriozola peptides); cited from earlier work.
Target sequence in this assay (P60484 whole entry, species assumed): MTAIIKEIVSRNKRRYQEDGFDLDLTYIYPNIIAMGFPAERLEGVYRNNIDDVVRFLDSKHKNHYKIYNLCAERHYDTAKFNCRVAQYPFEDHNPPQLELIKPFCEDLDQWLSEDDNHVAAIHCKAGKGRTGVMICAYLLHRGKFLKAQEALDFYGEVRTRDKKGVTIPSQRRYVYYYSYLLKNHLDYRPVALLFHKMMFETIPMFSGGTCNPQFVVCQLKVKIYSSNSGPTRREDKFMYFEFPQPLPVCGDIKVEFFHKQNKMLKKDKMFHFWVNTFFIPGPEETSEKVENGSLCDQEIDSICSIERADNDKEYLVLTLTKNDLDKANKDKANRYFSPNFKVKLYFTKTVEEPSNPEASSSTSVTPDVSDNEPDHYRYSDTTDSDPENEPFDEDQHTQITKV
Assay [2] deals with T1, PTEN. Nature of the assay: In vitro PTEN activity assay / IC50 assay (Malachite Green, C8-PIP3 liposome). Type of assay: biochemical. Details: purchased R&D Systems, Inc. To be noted: 10 μM peptide.
Target sequence in this assay (P60484 whole entry): as the sequence (P60484 whole entry, species assumed) above
From the text: In vitro PTEN activity assay was designed to check PTEN lipid phosphatase activity to convert phosphatidylinositol triphosphate (PIP3) to phosphatidylinositol diphosphate (PIP2) and produce phosphate ion (Pi). 1,2-dioctanoyl-sn-glycero-3-phospho-(1′-myo-inositol-3,4,5-triphosphate) (C8-PIP3) was used as PTEN substrate and prepared as lipid vesicle (liposome) with other phospholipids because PTEN as lipid phosphatase is an interfacial enzyme. For liposome preparation, C8-PIP3, DOPS (1,2-dioeloyl-sn-glycero-phosphoserine) and DOPC (1,2-dioeloyl-sn-glycero-phosphocholine) were mixed together with 800 μL of liposome buffer (50 mM Tris, 100 mM NaCl, 10 mM MgCl2, 5 mM DTT, pH=8.0) to final concentration of 0.1 mM of C8-PIP3, 0.25 mM DOPS and 0.25 mM DOPC. The lipid mixture was then sonicated at 4° C. for 30 min to produce liposome. After sonication, the liposome solution was briefly centrifuged to remove remaining lipids.
For PTEN activity assay, 20 ng of recombinant human PTEN protein was mixed with 40 μL of completed liposome solution. […] After incubation, the inorganic phosphate ions produced by PTEN protein was detected using Malachite Green phosphate detection kit. […]
All data represent experimentation in triplicate and the IC50 values were calculated by Prism 5 software (GraphPad Software).
Assay [3] has as its system Akt protein phosphorylation in PC12 cells (PI3K-Akt signaling pathway). Nature of the assay: Akt activation (phosphorylation) level by Western blot in PC12 cells. As to conditions: endogenous or overexpressed PTEN, TGN-1 10 and 100 μM, TGN-4 10 μM, 24 hr. Type of assay: cell-based, rat. Background: A western blot detects proteins with antibodies after separation by electrophoresis.
Method: PC12 rat pheochromocytoma cells were seeded to 6-well plate (0.6×10^6 cells/well) and cultured with DMEM media containing 7.5% FBS and 7.5% Goat Serum. After the cell confluency reached around 60˜70%, NGF (nerve growth factor, 50 ng/mL) was added to the PC12 cells for differentiation and incubated for 5 more days. Then, fresh media containing different amounts of TGN peptides in DMSO solution were added to each well and incubated further for 24 hr. For PTEN overexpession, PC12 cells were seeded in 6-well plate (1.0×10^6 cells/well) and differentiated with NGF (50 ng/mL) as above. DNA-Lipofectamine 2000 mixture was prepared for each well of cells to be transfected by firstly adding 2˜2.5 μg of human PTEN c-DNA into 500 μl of Opti-MEM. 3.75-8.75 μl of Lipofectamine 2000™ reagent was added next to the above diluted DNA solution, mixed gently and incubated for 25 minutes at room temperature. Growth media of PC12 cells in 6-well plate was exchanged with fresh media and 500 μl of the DNA-Lipofectamine 2000 complex was added to each well for transfection. Transfected cells were incubated at 37° C. in 5.0% CO2 incubator for 24-48 hours post-transfection before assaying for transgene expression.
After culturing, PC12 cells were collected from the 6-well plate and centrifuged down with bench-top centrifuger to make cell pellet (13,000 rpm, 5 min at RT). […]

Usually pIC50 stands for the IC50 on a negative log10 scale, so that one unit is a factor of ten. For “Cp23: synthetic phosphomimic peptide of Odriozola et al. encompassing PTEN AA368-390, no phosphorylated Serine residues (DVSDNEPDHYRYSDTTDSDPENE; UniProt P60484 368-390, looked up, fragment)”, the pIC50 with PTEN [1] is ~2.99 and 2.99.

Turning to “RRRRRRRR-DEHDTEYTPDYRQETHFNSQPTDKSDVI-amide (RRRRRRRRDEHDTEYTPDYRQETHFNSQPTDKSDVI-NH2) [TGN-5, TGN-2/TGN-3 scrambled peptide]”, the “Inhibitory effect on in vitro PTEN activity” value with PTEN [2] is given as “no significant inhibition”.

Take “RRRRRRRR-SDDEYTDNPDSRYVSDTPVDTEH-amide (RRRRRRRRSDDEYTDNPDSRYVSDTPVDTEH-NH2) [TGN-4, scrambled peptide of TGN-1 peptide, negative control]”: the “Activation (phosphorylation) level of Akt protein” value in assay [3] was “did not increase the activation level of AKT protein”. Also, the “Inhibitory effect on in vitro PTEN activity” value with PTEN [2] is listed as “no significant inhibition”.
